Results as given in patent US20240166747A1.
Residue numbers refer to the chain shown, from its start.

B1: 42Y073-86F08-22 (antibody, V domains shown)
VH: QVQLVQSGAEVKKPGASVKVSCKASGYTFDSYAMHWVRQAPGQGLEWMGGIIPIFGTAWYAQKFQGRVTITADESTSTAYMELSSLRSEDTAVYYCARGAGYYGDKDPMDVWGQGTTVTVSS
VL: DIQLTQSPSSLSASVGDRVTITCRASQSISSYLNWYQQKPGKAPKLLIYAASSLQSGVPSRFSGSGSGTDFTLTISSLQPEDFATYYCQQVLHTITFGGGTKVEIK
B2: 42Y073-86F08-3 (antibody, V domains shown)
VH: B1 VH with A16S, Y27G, D30V, S31N, M34I, H35S, I54A, F55L, W59N
VL: B1 VL
B3: 42Y073-86F08-17 (antibody, V domains shown)
VH: B1 VH with A16S, Y27G, D30R, S31E, M34I, H35S, I54V, W59N
VL: B1 VL
B4: 42Y073-86F08-16 (antibody, V domains shown)
VH: B1 VH with A16S, Y27G, D30N, S31E, M34I, H35S, I52V, I54V, W59K
VL: B1 VL
B5: 42Y073-86F08-4 (antibody, V domains shown)
VH: B1 VH with A16S, Y27G, D30S, S31E, M34I, G50N, W59G
VL: B1 VL
B6: 42Y073-86F08-8 (antibody, V domains shown)
VH: B1 VH with A16S, Y27G, D30W, S31L, M34I, H35S, I54Q, F55L, W59N
VL: B1 VL
B7: 42Y073-86F08-47 (antibody, V domains shown)
VH: B1 VH with A16S, Y27G, D30S, S31Q, M34I, G50V, T57K, W59N
VL: B1 VL
B8: 42Y073-1A01-85 (antibody, V domains shown)
VH: QVQLVQSGAEVKKPGASVKVSCKASGYTFTSYPMHWVRQAPGQGLEWMGIINPSGGFTSYAQKFQGRVTMTRDTSTSTVYMELSSLRSEDTAVYYCARETAYYTTKGNWFDPWGQGTLVTVSA
VL: DIQMTQSPSSLSASVGDRVTITCRASQSISSYLNWYQQKPGKAPKLLIYAASSLQSGVPSRFSGSGSGTDFTLTISSLQPEDFATYYCQQSLYPPRTFGGGTKVEIK
B9: 42Y073-1A01-100 (antibody, V domains shown)
VH: B8 VH with S31T, P33R, F57L, S59Q, A123S
VL: B8 VL
B10: 42Y073-86F04-18 (antibody, V domains shown)
VH: QVQLVQSGAEVKKPGSSVKVSCKASGGTFSSRAISWVRQAPGQGLEWMGGIIPIMGTARYAQKFQGRVTITADESTSTAYMELSSLRSEDTAVYYCARLLGESGMDVWGQGTTVTVSS
VL: B8 VL with S91P, L92Y, Y93F, P94S, R96P
B11: 42Y073-1A01-191 (antibody, V domains shown)
VH: B8 VH with S31K, P33R, S54Q, F57S
VL: B8 VL
B12: 42Y073-1A01-103 (antibody, V domains shown)
VH: B8 VH with S31A, P33Q, S54A, F57W, A123S
VL: B8 VL
B13: 42Y073-86F04-4 (antibody, V domains shown)
VH: B10 VH with S30E, R32E, M55F, T57R
VL: B8 VL with S91P, L92Y, Y93F, P94S, R96P
B14: 42Y073-1A01-126 (antibody, V domains shown)
VH: B8 VH with S31R, P33N, I50W, S54A, F57S
VL: B8 VL
B15: 42Y073-86F04-23 (antibody, V domains shown)
VH: B10 VH with S31G, R32Y, A33P
VL: B8 VL with S91P, L92Y, Y93F, P94S, R96P
B16: 42Y073-86F04-6 (antibody, V domains shown)
VH: B10 VH with S31G, R32H, M55F, T57R
VL: B8 VL with S91P, L92Y, Y93F, P94S, R96P
B17: 42Y073-1A01-97 (antibody, V domains shown)
VH: B8 VH with S31R, Y32A, P33A, S54A, F57Y, A123S
VL: B8 VL
B18: 42Y073-86F04-3 (antibody, V domains shown)
VH: B10 VH with S31Y, R32N
VL: B8 VL with S91P, L92Y, Y93F, P94S, R96P
B19: 42Y073-86F04-5 (antibody, V domains shown)
VH: B10 VH with R32H, M55F, T57R, A58G, R59K
VL: B8 VL with S91P, L92Y, Y93F, P94S, R96P

Target: native human CD96 on primary human T cells and NK cells (human) (UniProt P40200)
Assay: flow cytometry, primary human CD3+ T cells

EC50 [nM]	Binder
0.1	B1

Target: human CD96v2 expressed on cells (human) (UniProt P40200)
Assay: flow cytometry, CHO cells expressing human CD96v2

EC50 [nM]	Binder
0.04	B2
0.1	B3
0.03	B4
0.04	B5
0.03	B1
0.17	B6
0.05	B7
0.47	B8
0.02	B9
0.07	B10
0.01	B11
0.02	B12
0.04	B13
0.02	B14
0.06	B15
0.06	B16
0.77	B17
0.04	B18

Target: human CD96v2 expressed on cells (human) (UniProt P40200)
Assay: competition flow cytometry, inhibition of CD155-Fc-AF647 binding to CHO cells expressing human CD96v2

IC50 [nM]	Binder
0.26	B2
0.52	B3
0.78	B4
0.38	B5
0.41	B1
0.93	B6
0.17	B7
0.03	B8
0.06	B9
0.59	B10
0.03	B11
0.38	B19
0.03	B12
0.18	B13
0.1	B14
0.76	B15
0.25	B16
0.03	B17
0.31	B18
